Experimental data taken from US20100260678A1.

B1: Fab fragment of EM164 antibody (Fab, V domains shown)
VH: QVQLQQSGAELVKPGASVKLSCKASGYTFTSYWMHWVKQRPGQGLEWIGEINPSNGRTNYNEKFKRKATLTVDKSSSTAYMQLSSLTSEDSAVYYFARGRPDYYGSSKWYFDVWGAGTTVTVS
VL: DVLMTQTPLSLPVSLGDQASISCRSSQSIVHSNVNTYLEWYLQKPGQSPKLLIYKVSNRFSGVPDRFSGSGSGTDFTLRISRVEAEDLGIYYCFQGSHVPPTFGGGTKLEIKR
modifications: here or on the partner: biotinylated with PEO-maleimide-biotin reagent (sites not given)
B2: murine anti-IGF-I receptor antibody EM164 (antibody, V domains shown)
VH: B1 VH
VL: B1 VL
modifications: here or on the partner: biotinylated with PEO-maleimide-biotin reagent (sites not given)

Key:
Settings in all cases: remark: other sources report otherwise
[1] = biological target: T1, biotinylated full-length human IGF-I receptor, captured on streptavidin (human), P08069; experiment: similar ELISA binding titration on human IGF-I receptor
[2] = biological target: T1, biotinylated full-length human IGF-I …; experiment: ELISA titration on biotinylated human IGF-I receptor captured on streptavidin; non-linear regression for one-site binding
[3] = biological target: human IGF-I receptor on human tumor cells (human), P08069; experiment: IGF-I displacement assay on MCF-7 cells at 4° C., 10-100 µg/mL antibody, capture ELISA of the lysate
[4] = biological target: human IGF-I receptor on human tumor cells (human), P08069; experiment: IGF-I displacement assay on MCF-7 cells at 37° C., 10-100 µg/mL antibody, capture ELISA of the lysate

Binder	Kd [1]	Kd [2]	percent displacement of pre-bound biotinylated IGF-I [3]	percent displacement of pre-bound biotinylated IGF-I [4]
B1	300 pM			
B2		100 pM	50%	90%
